Measurements taken from paper PMC3457783.

Target: TRα1PV (mutated thyroid hormone receptor α1 carrying the PV mutation) (UniProt P10827)
Experiment: co-IP

fold NCoR1 co-precipitated relative to TRβ1PV (before induction): 1.6 fold
fold NCoR1 co-precipitated relative to TRβ1PV (day 6 after induction): 2 fold
Substance: nuclear receptor corepressor, NCoR1 (from UniProt Q60974 1-2453) (natural protein)
